The values that follow come from patent US20230115785, “ANALYTE DETECTION” (University of Leeds, published 2023).

Details in all cases: chain copies: 5 (pentamer, stated)
Data set [1] has as its target T1, C-reactive protein (CRP, pentamer) (Homo sapiens, UniProt P02741 P02741:19-224).
T1 sequence: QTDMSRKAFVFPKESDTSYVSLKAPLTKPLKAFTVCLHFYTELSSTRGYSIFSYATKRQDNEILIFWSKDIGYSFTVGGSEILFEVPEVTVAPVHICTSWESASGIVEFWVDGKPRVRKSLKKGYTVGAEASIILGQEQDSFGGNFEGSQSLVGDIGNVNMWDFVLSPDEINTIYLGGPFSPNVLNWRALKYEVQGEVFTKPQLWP
Put plainly: nanopipette translocation; carrier 9 nM, CRP 90 nM; no single peaks. The method, then: For the translocation experiments the nanopipettes with the working electrode were filled with the translocation buffer (0.1 M KCl with 10 mM TrisAc, 10 mM MgAc, 2 mM CaCl₂) and 1 mM EDTA) containing the DNA origami and analyte where applicable at a final concentration of 500 pM. The Mg is required to maintain the stability of the DNA origami, and the Ca to match the buffer conditions used to select the DNA aptamers employed as binding moieties. The grounded counter electrode was immersed in a 0.1 M KCl solution completing the circuit. […] Measurements were recorded using the Axopatch 700b amplifier, and the data were acquired at a rate of 100 kHz and 20 kHz low pass filtered. […]
To investigate the specificity of our sensing system, and in particular of the carriers to the CRP target, a random DNA sequence was selected to act as a non-specific aptamer and the translocation ion current was measured for carrier concentration of 9 nM and CRP concentration of 90 nM, i.e. the highest concentration reported in FIG. 6. A single distribution of peak amplitudes and dwell times with averages of 69±5 pA and […], respectively, were found, consistent with the values measured with unoccupied carriers.

The target in data set [2] is T1, C-reactive protein (CRP, pentamer). Description: SPR; amine-anchored extended aptamer; 10 mM TrisAc, 10 mM MgAc, 2 mM CaCl2, 1 mM EDTA; faster kinetics than aptamer 2. The method, then:
(§1) Aptamer-protein binding studies were carried out via an ESPRIT SPR instrument from Metrohm Autolab B.V (Utrecht, The Netherlands). For this, the end-modified aptamers attached with an amine group were anchored onto the gold SPR surface functionalized with a self-assembled monolayer (SAM) of C11PEG6COOH via EDC (1-ethyl-3-(3-dimethylaminopropyl) carbodiimide) NHS (N-hydroxysuccinimide) coupling chemistry. The gold SPR surface from XanTec bioanalytics was cleaned by sonication twice in acetone for 10 minutes and then immersed in an ethanolic 1 mM SAM solution containing 5% acetic acid and allowed to stand at room temperature for 48 hours. Following the incubation, the surface was rinsed with 100% ethanol, quickly dried with nitrogen and was mounted on the SPR system. To attach the DNA aptamers to the gold surface, the COOH-terminated SAM surface was activated with 50 mM EDC and 200 mM NHS in 100 mM MES buffer at pH5.5 for around 15 min. The surface was washed with the MES buffer, followed by a 30-minute incubation with 5 μM of DNA aptamer in 10 mM sodium acetate buffer at pH5.5. Any remaining activated COOH sites were quenched by exposing the surface to 100 mM ethanolamine in water for around 10 min. […] The binding was measured as the change in resonance angle.
For orientation: Surface plasmon resonance follows binding to a sensor surface in real time, without labels.

Data set [3] shares this target. Put plainly: SPR; amine-anchored extended aptamer; slower kinetics than aptamer 1; similar carrier sensing results (p217). As to the method:
as §1

B1: Nonspecific random aptamer (ssDNA)
DNA: CTGAACAAGAAAAATAGCAGAACTTACGAGCCAGGGGAAACAGTAAGGCCTAATTAGGTAAAGGAGTAAGTGCTCGAACGCTTCAGA
modifications: 5'-NH2
For the molecule B1, the binding result in data set [1] is “no binding”.

B2: hCRP aptamer 1 (ssDNA)
DNA: AAGCCTTTATTTCAACGGCAGGAAGACAAACACGATGGGGGGGTATGATTTGATGTGGTTGTTGCATGATCGTGGTCTGTGGTGCTGT
modifications: 5'-NH2
On to B2, for which the binding result in data set [2] is recorded as “binds”.

B3: hCRP aptamer 2 (ssDNA)
DNA: CGAAGGGGATTCGAGGGGTGATTGCGTGCTCCATTTGGTGTTTTTTTTTTTTGCAAGGATAAAAATTT
modifications: 3'-NH2
As for B3, the binding result in data set [3] is reported as “binds”.
